Legend:
[1] = target: wild-type cystic fibrosis transmembrane conductance regulator (CFTR) (Homo sapiens (Human)) (UniProt P13569); experiment: CFTR co-IP, MudPIT MS; BHK wt
[2] = target: ΔF508 CFTR (Homo sapiens (Human)) (UniProt P13569); experiment: CFTR co-IP, MudPIT MS; BHK ΔF508
Sequence of ΔF508 CFTR (Homo sapiens (Human)) (P13569 other isoform, or with tags, fused parts or gaps mutant limits assumed): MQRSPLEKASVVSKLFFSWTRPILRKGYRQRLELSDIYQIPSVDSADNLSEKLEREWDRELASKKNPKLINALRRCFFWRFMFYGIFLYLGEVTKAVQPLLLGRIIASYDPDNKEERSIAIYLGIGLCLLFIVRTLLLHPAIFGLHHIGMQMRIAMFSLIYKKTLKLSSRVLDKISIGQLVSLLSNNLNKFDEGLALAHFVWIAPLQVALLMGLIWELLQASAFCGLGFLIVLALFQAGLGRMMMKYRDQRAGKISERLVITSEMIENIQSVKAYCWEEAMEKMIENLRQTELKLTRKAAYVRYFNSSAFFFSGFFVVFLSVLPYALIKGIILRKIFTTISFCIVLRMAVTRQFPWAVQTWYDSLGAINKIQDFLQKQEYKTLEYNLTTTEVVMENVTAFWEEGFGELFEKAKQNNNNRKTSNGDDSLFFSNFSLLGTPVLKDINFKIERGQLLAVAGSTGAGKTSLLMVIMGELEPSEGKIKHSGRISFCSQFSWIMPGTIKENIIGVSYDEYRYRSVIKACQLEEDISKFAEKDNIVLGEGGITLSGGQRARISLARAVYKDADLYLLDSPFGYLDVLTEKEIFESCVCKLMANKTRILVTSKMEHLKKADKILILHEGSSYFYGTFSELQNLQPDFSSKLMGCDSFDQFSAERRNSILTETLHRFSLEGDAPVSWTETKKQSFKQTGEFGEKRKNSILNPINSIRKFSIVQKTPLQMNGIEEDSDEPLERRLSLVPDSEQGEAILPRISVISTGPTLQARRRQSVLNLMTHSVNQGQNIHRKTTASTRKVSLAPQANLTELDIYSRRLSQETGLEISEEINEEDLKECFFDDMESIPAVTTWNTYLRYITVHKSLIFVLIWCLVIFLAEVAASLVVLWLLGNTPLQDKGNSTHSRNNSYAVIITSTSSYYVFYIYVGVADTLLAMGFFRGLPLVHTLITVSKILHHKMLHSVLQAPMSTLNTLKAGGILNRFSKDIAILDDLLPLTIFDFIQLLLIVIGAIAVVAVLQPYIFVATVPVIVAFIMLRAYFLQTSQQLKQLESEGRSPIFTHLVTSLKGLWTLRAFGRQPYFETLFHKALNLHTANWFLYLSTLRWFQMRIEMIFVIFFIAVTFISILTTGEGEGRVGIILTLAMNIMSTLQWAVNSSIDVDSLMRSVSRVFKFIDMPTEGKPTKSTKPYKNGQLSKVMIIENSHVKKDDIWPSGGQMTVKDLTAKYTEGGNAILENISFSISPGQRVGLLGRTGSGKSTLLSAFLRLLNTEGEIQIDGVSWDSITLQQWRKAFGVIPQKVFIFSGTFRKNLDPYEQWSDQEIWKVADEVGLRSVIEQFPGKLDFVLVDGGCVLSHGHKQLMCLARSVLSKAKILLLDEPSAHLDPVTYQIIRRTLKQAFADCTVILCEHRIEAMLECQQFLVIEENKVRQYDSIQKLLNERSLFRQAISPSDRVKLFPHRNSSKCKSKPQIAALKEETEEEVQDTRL

Sequence of wild-type cystic fibrosis transmembrane conductance regulator (CFTR) (Homo sapiens (Human)) (P13569 whole entry): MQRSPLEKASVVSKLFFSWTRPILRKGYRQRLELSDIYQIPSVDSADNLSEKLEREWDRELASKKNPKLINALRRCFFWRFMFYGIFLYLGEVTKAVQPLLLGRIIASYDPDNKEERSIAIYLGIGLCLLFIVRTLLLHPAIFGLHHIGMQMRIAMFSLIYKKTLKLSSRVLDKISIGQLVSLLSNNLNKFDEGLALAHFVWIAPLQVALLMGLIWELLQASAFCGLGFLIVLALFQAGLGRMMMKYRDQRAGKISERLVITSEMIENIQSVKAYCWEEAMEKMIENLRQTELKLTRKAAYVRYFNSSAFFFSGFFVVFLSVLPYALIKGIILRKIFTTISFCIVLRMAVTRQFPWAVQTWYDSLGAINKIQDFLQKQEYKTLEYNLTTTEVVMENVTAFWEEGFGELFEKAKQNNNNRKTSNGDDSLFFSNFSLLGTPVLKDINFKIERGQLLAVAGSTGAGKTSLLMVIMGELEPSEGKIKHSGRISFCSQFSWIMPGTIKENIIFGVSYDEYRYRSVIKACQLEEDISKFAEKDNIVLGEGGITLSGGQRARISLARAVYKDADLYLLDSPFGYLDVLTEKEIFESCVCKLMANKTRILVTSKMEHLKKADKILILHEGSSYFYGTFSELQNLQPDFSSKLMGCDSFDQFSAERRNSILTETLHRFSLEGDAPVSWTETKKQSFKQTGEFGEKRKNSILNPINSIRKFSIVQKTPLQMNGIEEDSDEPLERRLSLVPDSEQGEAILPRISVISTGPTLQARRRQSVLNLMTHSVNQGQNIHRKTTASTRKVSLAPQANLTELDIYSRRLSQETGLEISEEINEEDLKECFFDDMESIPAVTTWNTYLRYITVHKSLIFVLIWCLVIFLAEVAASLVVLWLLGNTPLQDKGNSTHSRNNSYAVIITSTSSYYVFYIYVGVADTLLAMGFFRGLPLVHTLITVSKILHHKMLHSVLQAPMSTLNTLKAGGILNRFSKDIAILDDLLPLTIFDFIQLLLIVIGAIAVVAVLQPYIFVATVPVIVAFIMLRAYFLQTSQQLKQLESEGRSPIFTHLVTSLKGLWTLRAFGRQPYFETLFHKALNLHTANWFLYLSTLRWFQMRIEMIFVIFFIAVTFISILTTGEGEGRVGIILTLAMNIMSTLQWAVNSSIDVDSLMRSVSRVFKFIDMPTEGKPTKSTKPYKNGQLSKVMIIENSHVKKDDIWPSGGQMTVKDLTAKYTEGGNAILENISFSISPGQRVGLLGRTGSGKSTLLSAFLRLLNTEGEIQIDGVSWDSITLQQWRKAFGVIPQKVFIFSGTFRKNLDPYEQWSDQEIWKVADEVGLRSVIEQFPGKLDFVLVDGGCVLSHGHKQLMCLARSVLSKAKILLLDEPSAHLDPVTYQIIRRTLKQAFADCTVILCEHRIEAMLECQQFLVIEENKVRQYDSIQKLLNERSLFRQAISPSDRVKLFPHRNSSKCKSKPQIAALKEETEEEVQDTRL

Row | % sequence coverage [1] [%] | total spectra [1] [spectra] | unique spectra [1] [spectra] | % sequence coverage [2] [%] | total spectra [2] [spectra] | unique spectra [2] [spectra] | Substance
1 | 48 | 132 | 39 |  |  |  | Hsc70 (from UniProt P63018 2-646)
2 | 22 | 12 | 6 | 9 | 4 | 3 | Reticulocalbin 2 (from UniProt Q8BP92 26-320)
3 | 3 | 5 | 3 | 10 | 14 | 8 | Hsp70B′ (from UniProt P17066 1-643)
4 | 9 | 5 | 3 | 10 | 5 | 3 | TCP1 (from UniProt P11983 1-556)
5 |  |  |  | 13 | 2 | 2 | cyclophilin B (from UniProt P23284 34-216)
6 |  |  |  | 8 | 3 | 2 | Cdc37 (from UniProt Q61081 1-379)
7 |  |  |  | 11 | 4 | 4 | Hsc-Hsp70/Hsp90 organizing protein (HOP) (from UniProt Q60864 1-543)
8 | 28 | 16 | 6 | 32 | 19 | 9 | Hsp40-A2 (Hdj3) (from UniProt O60884 1-409)
9 | 8 | 6 | 4 | 19 | 20 | 12 | Hsp70-1A (from UniProt P0DMV8 2-641)
10 |  |  |  | 16 | 2 | 2 | p23 (from UniProt Q15185 1-160)
11 | 7 | 3 | 3 |  |  |  | Calumenin (from UniProt O43852 20-315)
12 | 10 | 2 | 2 | 28 | 20 | 7 | BAG-2 (from UniProt O95816 2-211)
13 |  |  |  | 10 | 6 | 5 | Hsp105 (from UniProt Q61699 2-858)
14 | 8 | 17 | 7 | 16 | 57 | 23 | Hsp70-2 (from UniProt P54652 1-639)
15 | 50 | 19 | 14 | 27 | 8 | 5 | Reticulocalbin (from UniProt Q05186 24-325)
16 | 40 | 25 | 13 | 31 | 33 | 10 | Hsp40-A1 (Hdj2) (from UniProt P31689 1-394)
17 | 33 | 37 | 17 | 40 | 85 | 30 | GRP78 (from UniProt P20029 20-655)
18 |  |  |  | 12 | 5 | 4 | BAG-3 (from UniProt Q9JLV1 2-577)
19 |  |  |  | 34 | 40 | 23 | GRP75 (from UniProt P38647 47-679)
20 |  |  |  | 17 | 5 | 4 | FKBP38 (from UniProt O35465 1-402)
21 |  |  |  | 34 | 35 | 11 | DnaJ-like protein (from UniProt P63036 1-394)
